For the assay, the target named is ζ subunit (F420-reductase subunit) of the ACDS CODH subcomplex from Candidatus Ethanoperedens thermophilum (Candidatus Ethanoperedens thermophilum). The assay can be described thus: crystal structure.

In general, stoichiometry N refers to the number of molecules, sites or subunits per partner or assembly. In turn, “ζ subunit (F420-reductase subunit) of the ACDS CODH subcomplex from Candidatus Ethanoperedens thermophilum (natural protein)” registered a stoichiometry N of 2.

The values are drawn from doi:10.1101/2024.01.23.576903.
